T1: amphyphisin SH3 (AMPH_HUMAN), P49418
T1 chain: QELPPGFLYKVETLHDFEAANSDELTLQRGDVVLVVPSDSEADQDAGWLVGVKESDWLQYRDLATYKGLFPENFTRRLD


Assays:
[1] = target: T1, amphyphisin SH3 (AMPH_HUMAN), P49418; experiment: SPOT array
[2] = target: endophilin SH3 (SH3G2_HUMAN), Q99962; experiment: SPOT array

| Binder | normalised SPOT signal, Boehringer light units (BLU); mean over the file's lines of this peptide [1] | normalised SPOT signal, Boehringer light units (BLU); mean over the file's lines of this peptide [2] |
| --- | --- | --- |
| HVQSPEKPPTSPRE [BAC05287 132-146] | 49.7 | 49.6 |
| HYLVPVRPRRQIVY [Q9Y4V7 156-169] | 5140 | 3150 |
| ALPSPLRPPAPPLP [Q9NR83 285-299] | 299 | 1950 |
| IAEALSRPGREASL [O15069 1001-1014] | 932 | 142 |
| IAWGLRRPIRLQMQ [Q9H2L5 59-72] | 489 | 846 |
| ISHLPSRPVKPNII [Q9BZQ1 159-172] | 97.4 | 120 |
| ISPEFKRPRDIAVD [Q9NZR2 3964-3977] | 30.4 | 14.9 |
| ISQKIKRPANSGEL [Q9H4G7 129-142] | 45.6 | 24.2 |
| ISTKLVRPKRKHGT [P42679 203-216] | 2410 | 97.8 |
| IDEALLRPGRLEVK [P46459 379-392] | 370 | 0 |
| IDPAILRPGRLDKT [O15381 730-743] | 317 | 225 |
| IDPAILRPGRLDQL [P55072 629-642] | 304 | 87 |
| IDPAILRPGRPDQL [Q9HAP0 257-270] | 220 | 169 |
| ALQPPRRPKSSNPF [Q9Y6N1 67-80] | 140 | 22500 |
| IDPALLRPGRLDKS [O43933 989-1002] | 619 | 0 |
| IDPALRRPGRFDRE [Q96IW6 580-593] | 314 | 108 |
| IEEVPPRPPSPPKK [Q16348 18-32] | 225 | 4240 |
| IEPQIRRPRSLSSP [O43165 457-470] | 113 | 365 |
| IFDGIQRPLKDINE [P38607 97-110] | 81.7 | 127 |
| IFGPLKRPIVEFSL [Q9NW13 566-579] | 27.1 | 61.9 |
| IFMYLRRPTEESVE [Q96RC0 189-202] | 111 | 165 |

| Binder | normalised SPOT signal, Boehringer light units (BLU); mean over the file's lines of this peptide [1] | normalised SPOT signal, Boehringer light units (BLU); mean over the file's lines of this peptide [2] |
| --- | --- | --- |
| IFSTLKRPQVETKT [Q96NM3 19-32] | 39.7 | 36.9 |
| IFVAPKRPSPLPRA [Q9NZP6 64-77] | 4170 | 7170 |
| IGRNIARPWKLIYY [Q15361 592-605] | 205 | 314 |
| ALQSPKRPRSPGSN [P78347 665-678] | 31.5 | 256 |
| IGVSPGRPGKSVLF [Q92918 675-688] | 131 | 128 |
| IGYDFRRPLAQLRE [O60288 996-1009] | 41.5 | 205 |
| IHSDPLRPRRETSH [P20849 240-253] | 5480 | 1340 |
| IIHVISRPLKAPPA [Q9NRY3 784-797] | 83.7 | 71.7 |
| IIPSPKRPVKLLSG [P04114 925-938] | 73.4 | 1060 |
| IIQELRRPKYTIYF [Q9Y4Z6 82-95] | 32 | 134 |
| IIRPPVRPPDPPSR [O60890 736-750] | 3250 | 3430 |
| IIRQIRRPKNVVLR [O94887 105-118] | 15.8 | 49.2 |
| IKFVIKRPELLTHS [P78347 534-547] | 28.9 | 63.7 |
| IKILLRRPNEKKSK [P32246 223-236] | 37.1 | 81 |
| ALRGLVRPHKKRKK [Q9NY93 500-513] | 54.6 | 108 |
| IKILPARPIKESEY [Q9P2U9 65-78] | 118 | 458 |
| IKKDLSRPQKPQLV [P31629 870-883] | 107 | 96.8 |
| IKPFPSRPPVLTQE [Q9P2K1 327-341] | 48.4 | 437 |
| IKTPPKRPGGRRRG [Q15910 343-356] | 68.6 | 628 |
| ILAKISRPKKRAKT [P48048 178-191] | 123 | 58.3 |
| ILDTLRRPKPVVDP [Q9NQU5 43-56] | 26.6 | 0 |
